Assay results as given in patent publication EP0533846B1.
Each block holds one substance with its values, some of them ahead of it.

What was measured:
[1] = molecular target: human ciliary neurotrophic factor receptor (CNTFR) (human); assay: indirect binding assay on COS cells transfected with clone I9: 1 ug/ml CNTF-myc, 9E10, 125I goat anti-mouse antibody; hand-held gamma counter
[2] = molecular target: human ciliary neurotrophic factor receptor (CNTFR) (human); assay: indirect binding assay on COS cells transfected with clone I13: 1 ug/ml CNTF-myc, 9E10, 125I goat anti-mouse antibody; hand-held gamma counter
[3] = molecular target: human ciliary neurotrophic factor receptor (CNTFR) (human); assay: indirect binding assay on COS cells transfected with clone I5: 1 ug/ml CNTF-myc, 9E10, 125I goat anti-mouse antibody; hand-held gamma counter
[4] = molecular target: human ciliary neurotrophic factor receptor (CNTFR) (human); assay: indirect binding assay on COS cells transfected with clone I8: 1 ug/ml CNTF-myc, 9E10, 125I goat anti-mouse antibody; hand-held gamma counter
[5] = molecular target: human ciliary neurotrophic factor receptor (CNTFR) (human); assay: indirect binding assay on COS cells transfected with clone I2: 1 ug/ml CNTF-myc, 9E10, 125I goat anti-mouse antibody; hand-held gamma counter
[6] = molecular target: human ciliary neurotrophic factor receptor (CNTFR) (human); assay: indirect binding assay on COS cells transfected with clone I6: 1 ug/ml CNTF-myc, 9E10, 125I goat anti-mouse antibody; hand-held gamma counter
[7] = molecular target: human ciliary neurotrophic factor receptor (CNTFR) (human); assay: indirect binding assay on COS cells transfected with clone I1: 1 ug/ml CNTF-myc, 9E10, 125I goat anti-mouse antibody; hand-held gamma counter
[8] = molecular target: human ciliary neurotrophic factor receptor (CNTFR) (human); assay: indirect binding: CNTF-myc, 9E10 antibody, FITC-labelled goat anti-mouse antibody, FACS on transfected COS cells
[9] = molecular target: human ciliary neurotrophic factor receptor (CNTFR) (human); assay: indirect binding assay on COS cells transfected with clone I15: 1 ug/ml CNTF-myc, 9E10, 125I goat anti-mouse antibody; hand-held gamma counter
[10] = molecular target: human ciliary neurotrophic factor receptor (CNTFR) (human); assay: indirect binding assay on COS cells transfected with clone I4: 1 ug/ml CNTF-myc, 9E10, 125I goat anti-mouse antibody; hand-held gamma counter
[11] = molecular target: human ciliary neurotrophic factor receptor (CNTFR) (human); assay: indirect binding assay on COS cells transfected with clone I7: 1 ug/ml CNTF-myc, 9E10, 125I goat anti-mouse antibody; hand-held gamma counter
[12] = molecular target: human ciliary neurotrophic factor receptor (CNTFR) (human); assay: indirect binding assay on COS cells transfected with clone I10: 1 ug/ml CNTF-myc, 9E10, 125I goat anti-mouse antibody; hand-held gamma counter
[13] = molecular target: human ciliary neurotrophic factor receptor (CNTFR) (human); assay: indirect binding assay on COS cells transfected with clone I14: 1 ug/ml CNTF-myc, 9E10, 125I goat anti-mouse antibody; hand-held gamma counter
[14] = molecular target: human ciliary neurotrophic factor receptor (CNTFR) (human); assay: indirect binding assay on COS cells transfected with clone I11: 1 ug/ml CNTF-myc, 9E10, 125I goat anti-mouse antibody; hand-held gamma counter
[15] = molecular target: human ciliary neurotrophic factor receptor (CNTFR) (human); assay: indirect binding assay on COS cells transfected with clone I12: 1 ug/ml CNTF-myc, 9E10, 125I goat anti-mouse antibody; hand-held gamma counter
[16] = molecular target: human ciliary neurotrophic factor receptor (CNTFR) (human); assay: iodinated CNTF bound to SH-SY5Y cells first, then PI-PLC 500 mU/ml for 45 min; no cold excess
[17] = molecular target: human ciliary neurotrophic factor receptor (CNTFR) (human); assay: approx. 100 pM iodinated CNTF on SH-SY5Y cells; control pre-treatment without PI-PLC; with thousand-fold excess unlabelled CNTF (non-specific)
[18] = molecular target: human ciliary neurotrophic factor receptor (CNTFR) (human); assay: monolayer binding of 2.16 nM 125I-CNTF to COS cells transfected with clone I2 (6.5 x 10^4 cells/well); specific cpm per cell
[19] = molecular target: human ciliary neurotrophic factor receptor (CNTFR) (human); assay: iodinated CNTF bound to SH-SY5Y cells first, then PI-PLC 500 mU/ml for 45 min; with excess unlabelled CNTF (non-specific)
[20] = molecular target: human ciliary neurotrophic factor receptor (CNTFR) (human); assay: monolayer binding of 2.16 nM 125I-CNTF to SH-SY5Y cells (3 x 10^5 cells/well, endogenous receptor); specific cpm per cell
[21] = molecular target: human ciliary neurotrophic factor receptor (CNTFR) (human); assay: approx. 100 pM iodinated CNTF on SH-SY5Y cells pre-treated with PI-PLC 500 mU/ml; with thousand-fold excess unlabelled CNTF (non-specific)
[22] = molecular target: human ciliary neurotrophic factor receptor (CNTFR) (human); assay: iodinated CNTF bound to SH-SY5Y cells first, then incubation without PI-PLC; with excess unlabelled CNTF (non-specific)
[23] = molecular target: human ciliary neurotrophic factor receptor (CNTFR) (human); assay: monolayer binding of 2.16 nM 125I-CNTF to SH-SY5Y cells (3 x 10^5 cells/well, endogenous receptor); cpm with 1000-fold excess unlabelled CNTF subtracted
[24] = molecular target: human ciliary neurotrophic factor receptor (CNTFR) (human); assay: approx. 100 pM iodinated CNTF on SH-SY5Y cells; control pre-treatment without PI-PLC; no cold excess
[25] = molecular target: human ciliary neurotrophic factor receptor (CNTFR) (human); assay: iodinated CNTF bound to SH-SY5Y cells first, then incubation without PI-PLC; no cold excess
[26] = molecular target: human ciliary neurotrophic factor receptor (CNTFR) (human); assay: monolayer binding of 2.16 nM 125I-CNTF to COS cells transfected with clone I2 (6.5 x 10^4 cells/well); cpm with 1000-fold excess unlabelled CNTF subtracted
[27] = molecular target: human ciliary neurotrophic factor receptor (CNTFR) (human); assay: approx. 100 pM iodinated CNTF on SH-SY5Y cells pre-treated with PI-PLC 500 mU/ml (receptor released before binding); no cold excess

CPM bound (125I-GaM) [1]: 7000 CPM
CPM bound (125I-GaM) [2]: 8000 CPM
CPM bound (125I-GaM) [3]: 2000 CPM
CPM bound (125I-GaM) [4]: 7500 CPM
CPM bound (125I-GaM) [5]: 8500 CPM
CPM bound (125I-GaM) [6]: 1600 CPM
CPM bound (125I-GaM) [7]: 2000 CPM
fold increase (FACS fluorescence) against cells transfected with negative clones [8]: 100 fold
CPM bound (125I-GaM) [9]: 8000 CPM
CPM bound (125I-GaM) [10]: 9000 CPM
CPM bound (125I-GaM) [11]: 6000 CPM
CPM bound (125I-GaM) [12]: 4500 CPM
CPM bound (125I-GaM) [13]: 10000 CPM
CPM bound (125I-GaM) [14]: 7000 CPM
CPM bound (125I-GaM) [15]: 5000 CPM
Substance: CNTF/myc (CNTF carrying a C-terminal ten amino acid c-myc epitope tag) (ligand)

CPM Bound [16]: 1060 CPM
CPM Bound [17]: 370 CPM
cpm/cell [18]: 0.0217 cpm/cell
CPM Bound [19]: 300 CPM
cpm/cell [20]: 0.00428 cpm/cell
CPM Bound [21]: 310 CPM
CPM Bound [22]: 310 CPM
Specific cpm bound [23]: 1280 cpm
CPM Bound [24]: 1440 CPM
CPM Bound [25]: 1250 CPM
Specific cpm bound [26]: 1410 cpm
CPM Bound [27]: 420 CPM
Substance: 125I-hCNTF (iodinated human ciliary neurotrophic factor) (from UniProt P26441 1-200) (ligand)
